Laboratory results taken from PMC4003280, “Structural basis for the Nanos-mediated recruitment of the CCR4–NOT complex and translational repression” (Genes & Development, 2014).

Tests used:
MBP-CNOT1 SHD = target: T1, MBP-CNOT1 SHD (human, UniProt A5YKK6 1833-2361); experiment: pull-down; GST pull-down in vitro with recombinant proteins expressed in E. coli; GST-NIM as bait; conditions: both partners purified
T1 construct: also called isolated CNOT1 SHD; NOT1 superfamily homology domain; source: E. coli BL21 (DE3) Star, purified (amylose resin, HiTrapQ, Superdex 200); not shown: MBP, N-terminal, kept
T1 sequence (A5YKK6 1833-2361): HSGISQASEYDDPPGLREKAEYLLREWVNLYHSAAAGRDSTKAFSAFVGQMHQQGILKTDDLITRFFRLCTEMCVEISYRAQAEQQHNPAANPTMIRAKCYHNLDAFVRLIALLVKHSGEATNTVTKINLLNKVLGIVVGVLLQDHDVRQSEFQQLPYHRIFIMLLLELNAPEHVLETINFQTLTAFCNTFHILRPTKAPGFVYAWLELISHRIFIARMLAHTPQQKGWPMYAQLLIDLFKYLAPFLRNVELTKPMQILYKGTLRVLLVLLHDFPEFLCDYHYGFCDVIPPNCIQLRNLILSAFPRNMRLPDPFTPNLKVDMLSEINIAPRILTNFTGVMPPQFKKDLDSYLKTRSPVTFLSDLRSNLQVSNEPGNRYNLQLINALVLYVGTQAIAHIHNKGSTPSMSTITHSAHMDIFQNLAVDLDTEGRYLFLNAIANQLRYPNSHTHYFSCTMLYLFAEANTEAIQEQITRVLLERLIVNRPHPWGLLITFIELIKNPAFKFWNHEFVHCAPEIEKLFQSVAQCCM

[1] = target: T2, CNOT1 SHD (residues 1833–2361), MBP tag removed (human, UniProt A5YKK6 1833-2361); experiment: crystal structure; CNOT1 SHD with synthetic Nanos1 NIM peptide; vapor diffusion at 22°C, 0.7-0.8 M succinic acid pH 7.0; refined at 2.8 Å; conditions: both partners purified
T2 construct: source: E. coli BL21 (DE3) Star, purified (amylose resin, HiTrapQ, HRV3C digestion, size exclusion chromatography); not shown: MBP, N-terminal, cleaved
T2 sequence (A5YKK6 1833-2361): as above

binding result (MBP-CNOT1 SHD) | binding result [1] | Binder
binds | – | FSSWNDYLGLATLITKA (domain or fragment, human, UniProt Q8WY41 40-56, looked up, Nanos1, human, NIM, residues 40-56; also called conserved motif of Nanos1 fused to glutathione S-transferase; GST-tagged Nanos1 NIM; source: E. coli BL21 (DE3) Star, purified (described in the Supplemental Material)) [GST-Nanos1 NIM]
binds | – | FDMWKDYFNLSQVVWAL (domain or fragment, human, UniProt P60321 6-22, looked up, Nanos2, human, NIM, residues 6-22; also called conserved motif of Nanos2 fused to glutathione S-transferase; GST-tagged Nanos2 NIM; source: E. coli BL21 (DE3) Star, purified (described in the Supplemental Material)) [GST-Nanos2 NIM]
binds | – | FDLWTDYLGLAHLVRAL (domain or fragment, human, UniProt P60323 4-20, looked up, Nanos3, human, NIM, residues 4-20; also called conserved motif of Nanos3 fused to glutathione S-transferase; GST-tagged Nanos3 NIM; source: E. coli BL21 (DE3) Star, purified (described in the Supplemental Material)) [GST-Nanos3 NIM]
– | binds | FSSWNDYLGLATLITKA (peptide, UniProt Q8WY41 40-56, looked up, Nanos1, H. sapiens, NIM, residues 40–56; also called NIM peptide of Nanos1; Nanos1 peptide; source: synthetic peptide (EMC Microcollections)) [Nanos1 NIM peptide (residues 40–56)]
